In patent US20210403565A1 (BIOATLA, published 2021):

T1: human CTLA4 expressed on the cell surface of CHO cells (human, UniProt P16410 36-223)
T1 construct: whole, on cells; also called CHO-huCTLA4; huCTLA4
T1 sequence (looked up): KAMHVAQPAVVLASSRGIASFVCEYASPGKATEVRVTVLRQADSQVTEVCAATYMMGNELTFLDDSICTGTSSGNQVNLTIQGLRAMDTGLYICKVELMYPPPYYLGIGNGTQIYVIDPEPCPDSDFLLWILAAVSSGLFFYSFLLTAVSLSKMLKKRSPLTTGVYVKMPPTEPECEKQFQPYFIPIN

T2: recombinant human CTLA4 extracellular domain (human, UniProt P16410 36-161)
T2 construct: extracellular domain; also called huCTLA-4
T2 sequence (looked up): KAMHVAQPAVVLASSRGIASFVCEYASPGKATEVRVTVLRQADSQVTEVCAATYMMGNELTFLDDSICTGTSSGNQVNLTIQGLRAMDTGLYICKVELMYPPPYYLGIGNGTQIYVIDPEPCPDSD

T3: cynomolgus CTLA4 expressed on the cell surface of CHO cells (cynomolgus, UniProt G7PL88 36-223)
T3 construct: whole, on cells; also called CHO-cynoCTLA4
T3 sequence: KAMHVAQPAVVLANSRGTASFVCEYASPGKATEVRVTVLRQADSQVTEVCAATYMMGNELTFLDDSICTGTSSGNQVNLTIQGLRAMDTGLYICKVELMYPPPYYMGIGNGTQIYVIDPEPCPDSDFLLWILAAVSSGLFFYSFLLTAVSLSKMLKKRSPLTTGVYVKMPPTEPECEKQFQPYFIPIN


Tests used:
[1] = molecular target: T1, human CTLA4 expressed on the cell …; assay: FACS, cells expressing human CTLA4, assay pH 6.0, MFI; lot 6972 in Tris buffer, T0; unit from the axis Log[ng/mL]
Method: (§1) The amount of bound antibodies was quantified using anti-human IgG antibody conjugated to fluorophores. The MFI in each reaction was proportional to the amount of antibodies bound. The EC₅₀ value (in ng/mL) for binding to human CTLA4 on cells was determined by MFI of the singlets population against antibody concentration with a Prism variable slope of four-parameter dose-response curve, which was calculated using the nonlinear fit (variable slope, four parameters) model built into GraphPad Prism software (version 7.03).

[2] = molecular target: T1, human CTLA4 expressed on the cell …; assay: FACS, cells expressing human CTLA4, assay pH 7.4, MFI; lot 6972 in Glu buffer, T2W; unit from the axis Log[ng/mL]
Method: as §1

[3] = molecular target: T2, recombinant human CTLA4 extracellular …; assay: ELISA, wells coated with human CTLA4, assay pH 7.4; lot 6972 in Glu buffer, T0; unit from the axis Log[ng/mL]
Method: (§2) Both ELISA and FACS analysis were used to measure the binding activity. […] The amount of bound antibodies was quantified using anti-human IgG antibody conjugated to HRP. The absorbance at 450 nm in each measurement was proportional to the amount of antibodies bound. […] EC50 value (in ng/mL) for binding to human CTLA4 was determined by absorbance at 450 nm against antibody concentration with Prism variable slope of four-parameter dose-response curve, which was calculated using the nonlinear fit (variable slope, four parameters) model built into GraphPad Prism software (version 7.03). The buffers tested included His buffer (His), Tris buffer (Tris), Glutamine buffer (Glu) and no buffer.

[4] = molecular target: T2, recombinant human CTLA4 extracellular …; assay: ELISA, wells coated with human CTLA4, assay pH 6.0; lot 6978 in Tris buffer, T2W; unit from the axis Log[ng/mL]
Method: as §2

[5] = molecular target: T3, cynomolgus CTLA4 expressed on the cell …; assay: FACS saturation, CHO-cynoCTLA-4, pH 7.4, MFI, titration up to about log 6.5; at baseline up to about log 4.5, about 100000 at the end, no plateau; no unit in the table, unit from the axis Log Antibodies [ng/ml]
Method: (§3) The amount of antibodies bound on the cells was quantified using anti-human IgG antibody conjugated to fluorophores. EC₅₀ values at pH 6.0 and 7.4 for binding to cells were calculated using the nonlinear fit (variable slope, four parameters) model built into GraphPad Prism software (version 7.03). The expression levels of human CTLA4 or cynomolgus CTLA4 on the surface of the CHO cells were determined using a BD QuantiBRITE™ PE kit.
(§4) Finally, saturations of the antibodies on the CHO cells expressing human or cynomolgus CTLA4 at pH 7.4 were also measured by FACS (FIGS. 8A-8B).

[6] = molecular target: T1, human CTLA4 expressed on the cell …; assay: FACS, CHO cells expressing human CTLA4 (CHO-huCTLA-4), pH 7.4, MFI; curve still rising at log 5, no plateau; no unit in the table, unit from the axis Log Antibodies [ng/ml]
Method: as §3
(§5) At least two independent duplicate FACS experiments were performed for each antibody using each of the cell lines. The binding activities at different concentrations of the antibodies are plotted in these figures.

[7] = molecular target: T2, recombinant human CTLA4 extracellular …; assay: ELISA, wells coated with human CTLA4, assay pH 7.4; lot 6978 in Tris buffer, T2W; curve still rising at log 3 (OD450 at most about 0.3), no plateau; unit from the axis Log[ng/mL]
Method: as §2

[8] = molecular target: T3, cynomolgus CTLA4 expressed on the cell …; assay: FACS, CHO cells expressing cynomolgus CTLA4 (CHO-cynoCTLA-4), pH 7.4, MFI; curve near baseline up to log 4, about 150000 at log 5, no plateau; no unit in the table, unit from the axis Log Antibodies [ng/ml]
Method: as §3, §5

[9] = molecular target: T1, human CTLA4 expressed on the cell …; assay: FACS, cells expressing human CTLA4, assay pH 7.4, MFI; lot 6978 in His buffer, T2W; unit from the axis Log[ng/mL]
Method: as §1

[10] = molecular target: T2, recombinant human CTLA4 extracellular …; assay: ELISA, wells coated with human CTLA4, assay pH 6.0; lot 6978 in His buffer, T0; unit from the axis Log[ng/mL]
Method: as §2

[11] = molecular target: T1, human CTLA4 expressed on the cell …; assay: FACS saturation, CHO-huCTLA-4, pH 7.4, MFI, titration up to about log 6.5, curve still rising at the end; no unit in the table, unit from the axis Log Antibodies [ng/ml]
Method: as §3, §4

EC50 [1] | EC50 [2] | EC50 [3] | EC50 [4] | EC50 [5] | EC50 [6] | EC50 [7] | EC50 [8] | EC50 [9] | EC50 [10] | EC50 [11] | Binder
0.291 µg/mL | 0.607 µg/mL | 0.11 µg/mL |  |  |  |  |  |  |  |  | BA-087-05-19 (antibody, V domains shown, Detected with anti-human IgG and a molecular weight of 146 kDa was used in SPR, so it was tested as a whole IgG; also called BA-087-05-019; BA-087-05-19 (# 6972)) VH: EVQLVESGGGLVQPGGSLRLSCAASGFTFSHYTMHWVRQAPGKGLEWVSFISYDGNNKYYADSVKGRFTISRDNSKNTLYLQMNSLRAEDTAVYYCARTGWLGPFDYWGQGTLVTVSS VL: AIQLTQSPSSLSASVGDRVTITCRASQYVGSSYLAWYLQKPGQSPQLLIYGAFSRATGIPARFSGSGSGTEFTLTISSLQSEDFAVYYCQQDGSSPWTFGQGTKVEIK
 |  |  | 0.014 µg/mL | 1650 µg/mL | 41.1 µg/mL | 1.49 µg/mL | 83.9 µg/mL | 1.18 µg/mL | 0.038 µg/mL | 69.6 µg/mL | BA-087-08-32 (antibody, V domains shown, Detected with anti-human IgG and a molecular weight of 146 kDa was used in SPR, so it was tested as a whole IgG; also called BA-087-08-032; BA-087-08-32 (# 6978)) VH: EVQLVQSGAEVKKPGATVKISCKVSGFTFSHYTMHWIRQSPSRGLEWLGFISYDGNYKYYADSVKGRFTISRDNAKNSLYLQMNSLRAEDTAVYYCARTGWLGPFDYWGQGTLVTVSS VL: EIVMTQSPATLSVSPGERATLSCRASQSVGSSYLAWYQQKPGKAPKLLIYGAFSRATGVPSRFSGSGSGTDFTLTISSLQPEDFATYYCQQDGSSPWTFGQGTKVEIK
